Consider five sequences from patent US6613742B1, “Chemokine-derived synthetic peptides” (Thomas Jefferson University, priority 1999, dated 2003).

In the experiment the target is T1, CXCR4 (Homo sapiens, UniProt P61073).
T1 construct: expressed in transfected cells; host or cells: QT6 cells, calcium phosphate transfection
The experiment is described as follows: HIV-1 gp 120-CXCR4 mediated cell-cell fusion assay (luciferase reporter). Type of experiment: cell-based. Particulars: for inhibiting cell-cell fusion, compared with N-terminal SDF-1 peptides SEQ ID NOS:8 and 10: effector 293 cells + QT6 target cells (CD4, CXCR4), peptide concentration 25 μM (FIG. 1). For orientation: A reporter such as luciferase makes a cellular process visible.

Where no end group is shown, it is not given here.

T1 sequence (P61073 whole entry): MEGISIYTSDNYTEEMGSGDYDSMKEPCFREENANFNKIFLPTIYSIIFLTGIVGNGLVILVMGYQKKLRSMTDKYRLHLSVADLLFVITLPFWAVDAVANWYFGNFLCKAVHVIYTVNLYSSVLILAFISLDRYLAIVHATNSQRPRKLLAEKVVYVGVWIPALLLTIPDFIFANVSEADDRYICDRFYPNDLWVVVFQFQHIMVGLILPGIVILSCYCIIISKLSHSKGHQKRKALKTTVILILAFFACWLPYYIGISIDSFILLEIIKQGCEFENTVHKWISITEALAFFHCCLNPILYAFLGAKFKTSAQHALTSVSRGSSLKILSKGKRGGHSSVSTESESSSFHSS

In the case of “KPVSLSYRCPCRFFGGQGLKWIQEYLEKALN (cysteine pairing not given here) [SEQ ID NO:5, SDF-1 amino acids 1-14 and 55-67 linked by a (Gly)4 bridge]”, the “inhibiting cell-cell fusion, compared with N-terminal SDF-1 peptides SEQ ID NOS:8 and 10” value is listed as “substantially more effective”. On to “LKWIQEYLEKALN [SEQ ID NO:9, C-terminal SDF-1 peptide prepared for comparison, reference compound]”, for which the “activity in inhibiting cell-cell fusion” value (higher concentration of 50 μM) is “only negligibly active”. Regarding “LSYRCPCRFFGGGGLKWIQEYLEKALN (cysteine pairing not given here) [SEQ ID NO:4, SDF-1 amino acids 5-14 and 55-67 linked by (Gly)4]”, the “inhibiting cell-cell fusion, compared with N-terminal SDF-1 peptides SEQ ID NOS:8 and 10” value is “substantially more effective”. Same read-out and setting: for “LSYRCPCRFFGGLKWIQEYLEKALN (cysteine pairing not given here) [SEQ ID NO:6, SDF-1 amino acids 5-14 and 55-67 linked by (Gly)2]” the value was “substantially more effective”; for “LSYRCPCRFFKKKKLKWIQEYLEKALN (cysteine pairing not given here) [SEQ ID NO:7, SDF-1 amino acids 5-14 and 55-67 linked by (Lys)4]”, “substantially more effective”.
